Measured values: the Human Domainome abundance scans (Beltran et al. 2025)

B1: Nuclear receptor subfamily 1 group D member 2, residues 103 to 171; numbered along this chain, Q14995 (parent)
chain: CKVCGDVASGFHYGVHACEGCKGFFRRSIQQNIQYKKCLKNENCSIMRMNRNRCQQCRFKKCLSVGMSR

Variants of: B1
Assay: abundance fitness (aPCA) (normalised: wild type 0, dead -1); higher = more abundant; growth selection in yeast, the domain comes from the species named
Details: Homo sapiens

Abundance fitness: each site, then its substitutions
Q56: D 0.397 | M 0.002 | R -0.127 | V -0.134 | T -0.013 | H -0.09 | I -0.134 | P -0.205 | C -0.391 | L -0.022 | W 0.39 | N 0.143 | F -0.006 | E 0.1 | K -0.3
Q55: C -0.324 | P 0.027 | R -0.418 | S -0.115 | M -0.53 | Y -0.08 | I -0.611 | V -0.425 | G 0.088 | K -0.202 | A 0.099 | L -0.006 | N -0.265 | E 0.251
C57: I -0.44 | L -0.708 | A -0.738 | M -1 | G -0.855 | D -0.689 | F -0.806 | K -0.687
M49: F 0.195 | E 0.114 | Q 0.15 | G 0.044 | S 0.076 | R -0.316 | N 0.093 | K 0.12 | Y 0.128 | D 0.428 | I 0.56 | T 0.147 | P -0.178
C54: K -0.134 | T -0.717 | A -0.552 | R -0.668 | S -0.688 | W -1.09 | I -0.903 | N -0.722 | Q -0.922 | E -0.77 | M -0.618 | P -0.606 | L -0.749 | Y -0.576 | F -0.946 | G -0.847 | D -0.749
R53: D 0.318 | C 0.3 | G 0.103 | F 0.257 | W 0.14 | E 0.412 | L 0.228 | Q 0.364 | M 0.098 | K 0.028 | P 0.142 | T 0.092 | A 0.248 | N 0.332 | V 0.186 | H 0.029
R51: W -0.077 | T -0.214 | L -0.059 | E -0.091 | P 0.216 | K 0.044 | G -0.001 | I -0.417 | V 0.026 | A -0.165 | M -0.328 | Y -0.077 | S -0.118 | Q -0.063
N50: T -0.121 | P -0.45 | I -0.415 | F -0.107 | L -0.45 | M -0.61 | R -0.359 | G -0.383 | K -0.346 | Q 0.032 | V -0.306 | E -0.193 | S -0.349
I46: K -0.789 | Y 0.082 | L -0.282 | T -0.387 | M -0.093 | F -0.613 | N -0.012 | H -0.162 | G -0.258 | S -0.353 | V 0.123 | R -0.127 | Q -0.39 | P 0.068 | W -0.709
N52: M -0.419 | L -0.14 | I -0.325 | E 0.139 | S -0.395 | T -0.756 | F -0.352 | W -0.706 | A 0.394 | R -0.805 | P -0.698 | V -0.532
R48: L 0.191 | W -0.018 | G 0.089 | P 0.346 | K -0.005 | C -0.417 | Q 0.134 | Y 0.066 | V 0.241 | E 0.125 | S -0.002 | A 0.193 | F -0.318 | I 0.117 | T -0.013 | D 0.402 | M 0.443
M47: A 0.006 | V -0.051 | S 0.184 | Y -0.482 | E 0.408 | R -0.062 | H 0.07 | T 0.307 | D 0.283 | K -0.185 | P -0.237 | I -0.421 | L -0.057
